According to patent US20030186841:

What was measured:
[1] = molecular target: pmGGG (Zif268-C7 finger 2 variant) finger 2 helix -2 to 6 = SRSDKLVR in Zif268-C7 (synthetic) (UniProt P08046); test: EMSA; conditions: [7-9,26-28]
[2] = molecular target: pGGG (Zif268-C7 finger 2 variant) finger 2 helix -2 to 6 = SRSDHLTR in Zif268-C7 (synthetic) (UniProt P08046); test: EMSA; conditions: [7-9,26-28]
[3] = molecular target: pmGAG (Zif268-C7 finger 2 variant) finger 2 helix -2 to 6 = SRSDNLVR in Zif268-C7 (synthetic) (UniProt P08046); test: EMSA; conditions: [7-9,26-28]
[4] = molecular target: pmGAA (Zif268-C7 finger 2 variant) finger 2 helix -2 to 6 = SQSSNLVR in Zif268-C7 (synthetic) (UniProt P08046); test: EMSA; conditions: [none]
[5] = molecular target: pmGGT (Zif268-C7 finger 2 variant) finger 2 helix -2 to 6 = STSGHLVR in Zif268-C7 (synthetic) (UniProt P08046); test: EMSA; conditions: [7-9,26-28]
[6] = test system: B3(F2) three-finger protein (synthetic); test: EMSA
[7] = molecular target: C7-PBD-VP64 (synthetic/human PR) (UniProt P08046); test: cell_activity; conditions: +RU486
E2C-HS2(F2) (synthetic) = test: EMSA; conditions: ELISA binding good (Table 11)
E2C-HS2(Sp1) (synthetic) = test: EMSA
E2C-HS2(Zif) (synthetic) = test: EMSA
[8] = molecular target: pGAT (Zif268-C7 finger 2 variant) finger 2 helix -2 to 6 = STSGNLVR in Zif268-C7 (synthetic) (UniProt P08046); test: EMSA; conditions: [none]
[9] = molecular target: pmGCG (Zif268-C7 finger 2 variant) finger 2 helix -2 to 6 = SRSDDLVR in Zif268-C7 (synthetic) (UniProt P08046); test: EMSA
[10] = molecular target: pmGTG (Zif268-C7 finger 2 variant) finger 2 helix -2 to 6 = SRSDELVR in Zif268-C7 (synthetic) (UniProt P08046); test: EMSA; conditions: [7-9,26-28]
[11] = test system: C5(F2) three-finger protein (synthetic); test: EMSA
[12] = molecular target: pmGAC (Zif268-C7 finger 2 variant) finger 2 helix -2 to 6 = SDPGNLVR in Zif268-C7 (synthetic) (UniProt P08046); test: EMSA; conditions: [none]
[13] = molecular target: pGTA (Zif268-C7 finger 2 variant) finger 2 helix -2 to 6 = SQSSSLVR in Zif268-C7 (synthetic) (UniProt P08046); test: EMSA
[14] = molecular target: C7 (Zif268-C7) (synthetic) (UniProt P08046); test: EMSA; conditions: [none]
[15] = test system: E2C(Sp1)-VP16 (synthetic); test: cell_activity; conditions: HeLa luciferase
[16] = test system: E2(F2) three-finger protein (synthetic); test: EMSA
[17] = test system: E2C(Sp1) six-finger (synthetic); test: EMSA
[18] = test system: E2C(Zif) six-finger (synthetic); test: EMSA
[19] = molecular target: pGCA (Zif268-C7 finger 2 variant) finger 2 helix -2 to 6 = SQSGDLRR in Zif268-C7 (synthetic) (UniProt P08046); test: EMSA; conditions: [none]
[20] = molecular target: pmGCT (Zif268-C7 finger 2 variant) finger 2 helix -2 to 6 = STSGELVR in Zif268-C7 (synthetic) (UniProt P08046); test: EMSA; conditions: [none]
[21] = molecular target: pmGGC (Zif268-C7 finger 2 variant) finger 2 helix -2 to 6 = SDPGHLVR in Zif268-C7 (synthetic) (UniProt P08046); test: EMSA; conditions: [7-9,26-28]
[22] = molecular target: pmGTT (Zif268-C7 finger 2 variant) finger 2 helix -2 to 6 = STSGSLVR in Zif268-C7 (synthetic) (UniProt P08046); test: EMSA; conditions: [none]
[23] = molecular target: pGTC (Zif268-C7 finger 2 variant) finger 2 helix -2 to 6 = SDPGALVR in Zif268-C7 (synthetic) (UniProt P08046); test: EMSA; conditions: [none]
[24] = molecular target: pGGA (Zif268-C7 finger 2 variant) finger 2 helix -2 to 6 = SQRAHLER in Zif268-C7 (synthetic) (UniProt P08046); test: EMSA; conditions: [7-9,26-28]
E2C-HS1(Sp1) (synthetic) = test: EMSA
E2C-HS1(Zif) (synthetic) = test: EMSA
E2C-HS1(F2) (synthetic) = test: EMSA; conditions: ELISA binding good (Table 11)
[25] = test system: E2F-PBD-VP64 heterodimer (synthetic/human PR); test: cell_activity; conditions: basal; 54986 with RU486; pcDNA control 17209
[26] = test system: B3B(Sp1)-VP64 (synthetic); test: cell_activity; conditions: HeLa luciferase
[27] = molecular target: pGTG (Zif268-C7 finger 2 variant) finger 2 helix -2 to 6 = SRKDSLVR in Zif268-C7 (synthetic) (UniProt P08046); test: EMSA; conditions: [7-9,26-28]
[28] = molecular target: pGCC (Zif268-C7 finger 2 variant) finger 2 helix -2 to 6 = SDCRDLAR in Zif268-C7 (synthetic) (UniProt P08046); test: EMSA; conditions: [none]
[29] = molecular target: VP16-C7-ER (synthetic/mouse ER) (UniProt P19785); test: cell_activity; conditions: 4-OH tamoxifen
[30] = test system: VP16-C7-PR (synthetic/human PR); test: cell_activity; conditions: RU486
[31] = test system: B3C2(Sp1)-VP64 (synthetic); test: cell_activity; conditions: HeLa luciferase
[32] = test system: E2C(F2) six-finger (synthetic); test: EMSA

## GGACGCCCCCGCGGGTTTTCCCGCGGGGGCGTCC [F2 site GGG]
[1]
  Kd: 6 nM
[2]
  Kd: 0.4 nM
[3]
  Kd: 45 nM

## GGACGCTTCCGCGGGTTTTCCCGCGGAAGCGTCC [F2 site GAA]
[4]
  Kd: 0.5 nM

## GGACGCACCCGCGGGTTTTCCCGCGGGTGCGTCC [F2 site GGT]
[5]
  Kd: 15 nM

## GGAGGGGAGG (double strand) [b3]
[6]
  Kd: 4 nM

## C7 everted repeat, 1 bp spacer, TATA reporter
[7]; 6029 without
  activity (luciferase units): 13600

## GCCGCAGTGG (double strand) [e2c-hs2]
E2C-HS2(F2) (synthetic)
  Kd: 70 nM
E2C-HS2(Sp1) (synthetic)
  Kd: 25 nM
E2C-HS2(Zif) (synthetic)
  Kd: 75 nM

## C7 direct repeat, 3 bp spacer, TATA reporter
[7]; 3269 without
  activity (luciferase units): 5140

## GGACGCATCCGCGGGTTTTCCCGCGGATGCGTCC [F2 site GAT]
[8]
  Kd: 3 nM

## GGACGCCTCCGCGGGTTTTCCCGCGGAGGCGTCC [F2 site GAG]
[9]; [7-9,26-28]
  Kd: 6 nM
[10]
  Kd: 30 nM
[3]
  Kd: 1 nM

## GGAGGCGGGG (double strand) [c5]
[11]
  Kd: 30 nM

## GGACGCGTCCGCGGGTTTTCCCGCGGACGCGTCC [F2 site GAC]
[12]
  Kd: 3 nM

## C7 inverted repeat, 5 bp spacer, TATA reporter
[7]; 4704 without
  activity (luciferase units): 12400

## GGACGCTACCGCGGGTTTTCCCGCGGTAGCGTCC [F2 site GTA]
[13]; [none]
  Kd: 25 nM

## C7 direct repeat, 4 bp spacer, TATA reporter
[7]; 3966 without
  activity (luciferase units): 6940

## C7 inverted repeat, 2 bp spacer, TATA reporter
[7]; 6964 without
  activity (luciferase units): 19200

## GGACGCCCACGCGGGTTTTCCCGCGTGGGCGTCC [F2 site TGG]
[14]
  Kd: 0.5 nM

## GGGGCCGGAGCCGCAGTG (double strand) [erbB-2 promoter reporter, E2C site]
[15]
  activity (fold activation): 5

## GGGGGCGAGG (double strand) [e2]
[16]
  Kd: 3 nM

## AGTCTGAATGCCGCAGTGG (double strand) [e2c-muths1]
[17]
  Kd: 65 nM
[18]
  Kd: 200 nM

## GGACGCAGCCGCGGGTTTTCCCGCGGCTGCGTCC [F2 site GCT]
[19]
  Kd: 10 nM
[20]
  Kd: 65 nM

## GGACGCGCCCGCGGGTTTTCCCGCGGGCGCGTCC [F2 site GGC]
[5]
  Kd: > 2400 nM
[21]
  Kd: 40 nM

## C7 direct repeat, 1 bp spacer, TATA reporter
[7]; 3383 without
  activity (luciferase units): 8200

## C7 inverted repeat, 3 bp spacer, TATA reporter
[7]; 7132 without
  activity (luciferase units): 12800

## GGACGCAACCGCGGGTTTTCCCGCGGTTGCGTCC [F2 site GTT]
[22]
  Kd: 5 nM

## C7 everted repeat, 0 spacer, TATA reporter
[7]; 8750 without
  activity (luciferase units): 17400

## GGACGCGACCGCGGGTTTTCCCGCGGTCGCGTCC [F2 site GTC]
[23]
  Kd: 40 nM

## GGGGCCGGAGCCGCAGTGA (double strand) [e2c-a]
[17]
  Kd: 0.75 nM
[18]
  Kd: 2.3 nM

## C7 everted repeat, 2 bp spacer, TATA reporter
[7]; 7880 without
  activity (luciferase units): 20800

## GGACGCTCCCGCGGGTTTTCCCGCGGGAGCGTCC [F2 site GGA]
[24]
  Kd: 3 nM

## C7 inverted repeat, 0 spacer, TATA reporter
[7]; 2921 without
  activity (luciferase units): 10800

## GGGGCCGGAG (double strand) [e2c-hs1]
E2C-HS1(Sp1) (synthetic)
  Kd: 35 nM
E2C-HS1(Zif) (synthetic)
  Kd: 70 nM
E2C-HS1(F2) (synthetic)
  Kd: 45 nM

## GGGGCCGGAAGTCTGAATG (double strand) [e2c-muths2]
[17]
  Kd: 100 nM
[18]
  Kd: 200 nM

## GAGGAGGGCTGCTTGAGGAAGTA (double strand) [erbB-2 promoter reporter, E2F dimer site]
[25]
  activity (luciferase units): 61400

## C7 everted repeat, 3 bp spacer, TATA reporter
[7]; 9670 without
  activity (luciferase units): 21500

## C7 direct repeat, 0 spacer, TATA reporter
[7]; 4081 without
  activity (luciferase units): 20000

## GCCTGAGAGGGAGCGGTG (double strand) [integrin beta3 promoter reporter, b3b site]
[26]
  activity (fold activation): 12

## GGACGCCACCGCGGGTTTTCCCGCGGTGGCGTCC [F2 site GTG]
[13]; [7-9,26-28]
  Kd: > 1000 nM
[27]
  Kd: 3 nM
[1]
  Kd: > 1400 nM
[10]
  Kd: 15 nM

## C7 everted repeat, 4 bp spacer, TATA reporter
[7]; 6974 without
  activity (luciferase units): 8900

## GGACGCGGCCGCGGGTTTTCCCGCGGCCGCGTCC [F2 site GCC]
[28]
  Kd: 80 nM
[23]
  Kd: > 4400 nM
[12]
  Kd: 90 nM

## C7 inverted repeat, 1 bp spacer, TATA reporter
[7]; 4342 without
  activity (luciferase units): 9530

## C7 direct repeat, 5 bp spacer, TATA reporter
[7]; 2597 without
  activity (luciferase units): 5460

## C7 inverted repeat, 4 bp spacer, TATA reporter
[7]; 3502 without
  activity (luciferase units): 8860

## 10xC7 pGL3prom reporter
[29]
  activity (fold induction): 43
[30]
  activity (fold induction): 26

## GGACGCTGCCGCGGGTTTTCCCGCGGCAGCGTCC [F2 site GCA]
[19]
  Kd: 2 nM

## GGAGGGGACGCGGTGGGT (double strand) [integrin beta3 promoter reporter, b3c2 site]
[31]
  activity (fold activation): 22

## C7 everted repeat, 5 bp spacer, TATA reporter
[7]; 6892 without
  activity (luciferase units): 13100

## GGGGCCGGAGCCGCAGTGG (double strand) [e2c-g]
[17]
  Kd: 0.5 nM
[18]
  Kd: 1.6 nM
[32]
  Kd: 25 nM

## GGACGCCGCCGCGGGTTTTCCCGCGGCGGCGTCC [F2 site GCG]
[9]; [none]
  Kd: 9 nM

## C7 direct repeat, 2 bp spacer, TATA reporter
[7]; 3417 without
  activity (luciferase units): 8170
